According to publication PMC9646764 (Nature Communications, 2022):

Target: TcdB4.2 (full-length recombinant toxin B variant 4.2) (Clostridioides difficile)
Test: BLI; as a1, KD calculated with the BLItz system software from the indicated concentrations (Supplementary Fig. 7); KD called estimated
Details: both partners purified

B1: mTFPI-Fc (Fc-tagged mouse TFPI) (Fc fusion)
chain: LSEEADDTDSELGSMKPLHTFCAMKADDGPCKAMIRSYFFNMYTHQCEEFIYGGCEGNENRFDTLEECKKTCIPGYEKTAVKAASGAERPDFCFLEEDPGLCRGYMKRYLYNNQTKQCERFVYGGCLGNRNNFETLDECKKICENPVHSPSPVNEVQMSDYVTDGNTVTDRSTVNNIVVPQSPKVPRRR
notes: source: Expi293F, transfected, purified from culture medium as His-tagged protein
  Kd: ~63 nM
